Molecular target: streptavidin-binding peptide-tagged constitutively active form of TAZ (SBP-TAZ4SA) (human) (UniProt Q9GZV5)
Sequence of UniProt Q9GZV5 (Q9GZV5 whole entry): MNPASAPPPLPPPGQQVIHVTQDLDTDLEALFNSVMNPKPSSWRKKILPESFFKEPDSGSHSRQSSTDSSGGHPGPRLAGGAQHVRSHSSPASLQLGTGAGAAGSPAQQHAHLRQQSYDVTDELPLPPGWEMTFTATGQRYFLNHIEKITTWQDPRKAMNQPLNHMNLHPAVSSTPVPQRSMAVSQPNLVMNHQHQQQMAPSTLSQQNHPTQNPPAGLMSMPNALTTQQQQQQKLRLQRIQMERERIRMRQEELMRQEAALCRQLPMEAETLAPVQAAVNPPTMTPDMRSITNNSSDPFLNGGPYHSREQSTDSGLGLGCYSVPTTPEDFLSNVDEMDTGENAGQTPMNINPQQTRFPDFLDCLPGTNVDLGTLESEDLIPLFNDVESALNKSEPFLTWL

Ccl19 promoter-driven luciferase activity in HEK293T cells co-transfected with TAZ4SA and p52 (p52 alone: 7.5-fold): 13.5 fold
Substance: Flag-p52 (from UniProt Q9WTK5 1-454) (natural protein)

— paper PMC6981200
